According to publication PMC5940305, “The Rab11-binding protein RELCH/KIAA1468 controls intracellular cholesterol distribution” (The Journal of Cell Biology, 2018):

Key:
[1] = target: T1, OSBP (Homo sapiens, UniProt P22059); experiment: liposome sterol transfer, DHE to dansyl-PE FRET; format: biochemical; conditions: lipid transfer substrate (not catalysis); with RELCH, Rab11a(Q70A)-His/GTP and myristoylated Arf1(Q71L)-Flag; RE-like donor and Golgi-like PI4P acceptor liposomes; 200 nM OSBP; pH 7.2; room temperatur
T1 construct: full-length, Flag-tagged, tag kept; 807 residues (deletion series ends at 807)
T1 sequence (P84077 2-181 Q71L partner, one chain of several): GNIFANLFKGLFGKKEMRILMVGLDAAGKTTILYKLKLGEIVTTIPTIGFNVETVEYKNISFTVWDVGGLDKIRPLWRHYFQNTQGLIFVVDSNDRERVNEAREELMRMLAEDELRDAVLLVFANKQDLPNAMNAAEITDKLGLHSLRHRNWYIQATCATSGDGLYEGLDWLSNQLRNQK

[2] = target: T2, untagged RELCH (mouse, UniProt Q148V7 1-1216); experiment: silica bead-based liposome binding assay; silica beads coated with RE-like liposomes (DOGS-NTA(Ni), Rho-PE) prebound with 5 µM Rab11a (Q70A)-His, then 200 nM untagged RELCH, 30 min at 4°C in HKM buffer with 1 mM GTP and BSA; stained with Rab11 or RELCH antibodies; conditions: both partners purified
T2 construct: RELCH/KIAA1468, mouse, cDNA NM_173187.3, with an N-terminal PreScission protease recognition site; no limits are stated; Residues of the PreScission site may be left at the N-terminus after cleavage; source: E. coli XL-1 blue (pQE32), purified (Ni-NTA agarose), His tag removed with PreScission protease; not shown: His, N-terminal, cleaved
T2 sequence (looked up): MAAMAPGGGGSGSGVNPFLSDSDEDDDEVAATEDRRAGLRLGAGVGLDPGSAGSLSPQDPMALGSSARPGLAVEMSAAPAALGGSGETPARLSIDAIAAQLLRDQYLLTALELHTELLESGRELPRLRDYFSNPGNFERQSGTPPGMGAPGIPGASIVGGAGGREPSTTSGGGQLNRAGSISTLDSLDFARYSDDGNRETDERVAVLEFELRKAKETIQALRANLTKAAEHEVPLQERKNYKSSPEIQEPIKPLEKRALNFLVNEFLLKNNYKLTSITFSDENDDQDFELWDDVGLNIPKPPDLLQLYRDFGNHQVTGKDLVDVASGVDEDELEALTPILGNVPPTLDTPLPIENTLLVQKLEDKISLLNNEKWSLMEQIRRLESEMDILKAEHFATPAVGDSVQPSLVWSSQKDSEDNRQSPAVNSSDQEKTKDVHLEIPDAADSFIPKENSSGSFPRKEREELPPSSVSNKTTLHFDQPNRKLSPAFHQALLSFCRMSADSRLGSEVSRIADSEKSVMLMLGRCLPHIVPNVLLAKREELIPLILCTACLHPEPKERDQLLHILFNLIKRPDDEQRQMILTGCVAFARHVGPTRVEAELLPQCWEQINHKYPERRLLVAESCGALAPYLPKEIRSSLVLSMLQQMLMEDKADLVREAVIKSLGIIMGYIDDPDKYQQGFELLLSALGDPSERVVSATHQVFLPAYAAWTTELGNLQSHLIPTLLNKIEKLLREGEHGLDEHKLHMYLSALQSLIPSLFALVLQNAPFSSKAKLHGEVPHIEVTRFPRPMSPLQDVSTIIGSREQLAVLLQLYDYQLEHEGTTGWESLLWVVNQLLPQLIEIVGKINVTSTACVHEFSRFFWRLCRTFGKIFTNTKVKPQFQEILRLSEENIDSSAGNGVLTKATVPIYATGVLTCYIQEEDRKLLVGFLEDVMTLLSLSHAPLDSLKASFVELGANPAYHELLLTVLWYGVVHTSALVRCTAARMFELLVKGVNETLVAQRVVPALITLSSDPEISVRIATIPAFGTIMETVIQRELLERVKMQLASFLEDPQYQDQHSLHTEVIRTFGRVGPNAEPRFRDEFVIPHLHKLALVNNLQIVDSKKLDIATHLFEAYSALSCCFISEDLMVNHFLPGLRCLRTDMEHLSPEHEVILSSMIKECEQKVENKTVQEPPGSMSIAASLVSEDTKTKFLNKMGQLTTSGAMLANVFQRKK

[3] = target: T3, GST-RELCH_(497-779) (Rab-binding domain) (mouse, UniProt Q148V7 497-779); experiment: pull-down; 10 µg GST-RELCH (RBD) on 20 µl Glutathione Sepharose 4B, 10 µg Rab11a (Q70A)-His loaded with GTP in 500 µl; immunoblot with Rab11 and GST antibodies; conditions: both partners purified
T3 construct: also called GST-RELCH (RBD); source: E. coli Rosetta II (pFAT2), purified (Ni-NTA agarose); not shown: GST, N-terminal, kept
T3 sequence (looked up): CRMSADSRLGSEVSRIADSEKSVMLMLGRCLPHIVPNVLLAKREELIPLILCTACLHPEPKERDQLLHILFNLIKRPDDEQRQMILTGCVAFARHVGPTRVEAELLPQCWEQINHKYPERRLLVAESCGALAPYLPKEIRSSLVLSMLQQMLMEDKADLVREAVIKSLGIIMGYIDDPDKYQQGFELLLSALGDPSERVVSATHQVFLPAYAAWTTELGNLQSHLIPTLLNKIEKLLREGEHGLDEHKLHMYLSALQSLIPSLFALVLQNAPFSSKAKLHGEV

[4] = target: T4, His-RELCH (mouse, UniProt Q148V7 1-1216); experiment: pull-down; 10 µg GST-Rab11a Q70A (GTP) on 20 µl Glutathione Sepharose 4B, 20 µg His-RELCH in 500 µl; immunoblot with RELCH and GST antibodies; conditions: both partners purified
T4 construct: RELCH/KIAA1468, mouse, cDNA NM_173187.3 amplified from a mouse embryo cDNA library; no limits are stated for this construct (deletion constructs are named by their ranges); also called purified recombinant RELCH; His-RELCH protein; source: E. coli XL-1 blue (pQE32tev), purified (Ni-NTA agarose); not shown: His, N-terminal, kept
T4 sequence (looked up): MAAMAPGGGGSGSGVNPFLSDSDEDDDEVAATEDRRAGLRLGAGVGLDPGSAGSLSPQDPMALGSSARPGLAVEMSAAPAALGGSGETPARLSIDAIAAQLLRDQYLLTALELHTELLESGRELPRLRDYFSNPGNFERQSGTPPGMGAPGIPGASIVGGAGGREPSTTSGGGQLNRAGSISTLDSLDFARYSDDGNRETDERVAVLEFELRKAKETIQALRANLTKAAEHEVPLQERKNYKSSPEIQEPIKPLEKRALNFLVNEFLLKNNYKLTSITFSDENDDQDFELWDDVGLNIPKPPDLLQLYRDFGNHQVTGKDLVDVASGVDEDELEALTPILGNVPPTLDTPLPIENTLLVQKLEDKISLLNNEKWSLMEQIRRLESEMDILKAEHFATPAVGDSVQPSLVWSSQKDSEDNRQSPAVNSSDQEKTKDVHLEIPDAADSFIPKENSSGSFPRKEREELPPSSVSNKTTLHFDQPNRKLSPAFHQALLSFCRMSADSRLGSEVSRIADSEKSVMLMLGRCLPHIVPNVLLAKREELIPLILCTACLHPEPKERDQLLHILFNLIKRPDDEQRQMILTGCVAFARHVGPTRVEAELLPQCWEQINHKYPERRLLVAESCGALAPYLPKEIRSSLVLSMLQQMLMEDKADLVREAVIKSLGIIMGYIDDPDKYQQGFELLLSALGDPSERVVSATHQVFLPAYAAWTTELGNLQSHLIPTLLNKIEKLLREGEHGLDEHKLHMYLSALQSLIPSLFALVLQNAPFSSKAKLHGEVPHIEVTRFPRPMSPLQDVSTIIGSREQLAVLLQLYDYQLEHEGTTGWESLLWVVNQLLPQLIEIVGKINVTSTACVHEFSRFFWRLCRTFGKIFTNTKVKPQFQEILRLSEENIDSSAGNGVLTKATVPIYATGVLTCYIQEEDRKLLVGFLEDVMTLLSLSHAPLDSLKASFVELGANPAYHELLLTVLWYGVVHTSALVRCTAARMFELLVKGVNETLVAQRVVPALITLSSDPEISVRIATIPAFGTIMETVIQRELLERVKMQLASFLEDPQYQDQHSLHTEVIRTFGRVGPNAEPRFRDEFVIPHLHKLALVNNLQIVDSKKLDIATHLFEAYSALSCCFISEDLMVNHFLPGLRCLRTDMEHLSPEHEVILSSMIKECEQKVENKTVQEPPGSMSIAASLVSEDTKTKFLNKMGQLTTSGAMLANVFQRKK

[5] = target: T4, His-RELCH; experiment: pull-down; 0.5 µg His-RELCH on Ni-NTA beads, 0.5 µg Flag-OSBP in 20 mM Hepes-NaOH pH 7.5, 100 mM NaCl, 5 mM MgCl2 with ethanol, cholesterol or 25-OH, 1 h at 4°C; immunoblot with His and Flag antibodies; conditions: both partners purified

For `CC(C)[C@@H](C)/C=C/[C@@H](C)[C@H]1CC[C@H]2C3=CC=C4C[C@@H](O)CC[C@]4(C)C3=CC[C@]12C` [DHE, dehydroergosterol], the “liposome sterol transfer, DHE to dansyl-PE FRET” value [1] was “the DHE transfer occurred in a RELCH dose-dependent manner”.

B1: Rab11a (Q70A)-His, loaded with GTP (natural protein, mouse, UniProt P62492 1-216, looked up)
chain: MGTRDDEYDYLFKVVLIGDSGVGKSNLLSRFTRNEFNLESKSTIGVEFATRSIQVDGKTIKAQIWDTAGAERYRAITSAYYRGAVGALLVYDIAKHLTYENVERWLKELRDHADSNIVIMLVGNKSDLRHLRAVPTDEARAFAEKNGLSFIETSALDSTNVEAAFQTILTEIYRIVSQKQMSDRRENDMSPSNNVVPIHVPPTTENKPKVQCCQNI
notes: Rab11a, mouse, GTP-locked mutant Q70A, cloned without a stop codon into pET28c; Loaded with GTP in the assays; on liposomes it is held through its His tag by DOGS-NTA(Ni); also called His6×-tagged Rab11a-GTP; Rab11a-GTP; source: E. coli Rosetta II (pET28c), purified (cOmplete His-tag purification resin, EDTA wash, nucleotide-free); not shown: His6, C-terminal, kept
B1: binds [2]; binds [3].

B2: GST-Rab11a Q70A, loaded with GTP (natural protein, UniProt P62491 1-216, looked up)
chain: MGTRDDEYDYLFKVVLIGDSGVGKSNLLSRFTRNEFNLESKSTIGVEFATRSIQVDGKTIKAQIWDTAGAERYRAITSAYYRGAVGALLVYDIAKHLTYENVERWLKELRDHADSNIVIMLVGNKSDLRHLRAVPTDEARAFAEKNGLSFIETSALDSTNVEAAFQTILTEIYRIVSQKQMSDRRENDMSPSNNVVPIHVPPTTENKPKVQCCQNI
notes: Rab11a; GTP-locked mutant Q70A; the pFAT2 His-GST-Rab constructs were made as in Haas et al., 2005 and Yoshimura et al., 2007; also called GTP-loaded Rab11a; GST-Rab11-GTP; source: E. coli Rosetta II (pFAT2), purified (Ni-NTA agarose); not shown: GST, N-terminal, kept
B2: binds [4].

B3: Flag-OSBP, full length (natural protein, human, UniProt P22059 1-807, looked up)
chain: MAATELRGVVGPGPAAIAALGGGGAGPPVVGGGGGRGDAGPGSGAASGTVVAAAAGGPGPGAGGVAAAGPAPAPPTGGSGGSGAGGSGSAREGWLFKWTNYIKGYQRRWFVLSNGLLSYYRSKAEMRHTCRGTINLATANITVEDSCNFIISNGGAQTYHLKASSEVERQRWVTALELAKAKAVKMLAESDESGDEESVSQTDKTELQNTLRTLSSKVEDLSTCNDLIAKHGTALQRSLSELESLKLPAESNEKIKQVNERATLFRITSNAMINACRDFLMLAQTHSKKWQKSLQYERDQRIRLEETLEQLAKQHNHLERAFRGATVLPANTPGNVGSGKDQCCSGKGDMSDEDDENEFFDAPEIITMPENLGHKRTGSNISGASSDISLDEQYKHQLEETKKEKRTRIPYKPNYSLNLWSIMKNCIGKELSKIPMPVNFNEPLSMLQRLTEDLEYHELLDRAAKCENSLEQLCYVAAFTVSSYSTTVFRTSKPFNPLLGETFELDRLEENGYRSLCEQVSHHPPAAAHHAESKNGWTLRQEIKITSKFRGKYLSIMPLGTIHCIFHATGHHYTWKKVTTTVHNIIVGKLWIDQSGEIDIVNHKTGDKCNLKFVPYSYFSRDVARKVTGEVTDPSGKVHFALLGTWDEKMECFKVQPVIGENGGDARQRGHEAEESRVMLWKRNPLPKNAENMYYFSELALTLNAWESGTAPTDSRLRPDQRLMENGRWDEANAEKQRLEEKQRLSRKKREAEAMKATEDGTPYDPYKALWFERKKDPVTKELTHIYRGEYWECKEKQDWSSCPDIF
notes: OSBP, human, amplified from pOTB7-OSBP, in pcDNA5/FRT/TO-Flag; also called Flag-tagged OSBP; source: HEK293FT, transfected, in lysate; Flp-In–293, transfected, in lysate; not shown: Flag, N-terminal, kept
B3: binds [5].
